# Results as given in US5945329A, “Customized proteases” (Carlsberg A/S, priority 1997, dated 1999).
# Substitutions are numbered along the chain they refer to. Numbers in names are those of the source.
# T1: carboxypeptidase Y (CPD-Y) variant N51S (Asn51 replaced with serine) (Saccharomyces cerevisiae, UniProt P00729, N162S)
# T1 construct: made in house; host or cells: S. cerevisiae W2579 (secreted)
# T1 sequence (P00729 112-532 N162S): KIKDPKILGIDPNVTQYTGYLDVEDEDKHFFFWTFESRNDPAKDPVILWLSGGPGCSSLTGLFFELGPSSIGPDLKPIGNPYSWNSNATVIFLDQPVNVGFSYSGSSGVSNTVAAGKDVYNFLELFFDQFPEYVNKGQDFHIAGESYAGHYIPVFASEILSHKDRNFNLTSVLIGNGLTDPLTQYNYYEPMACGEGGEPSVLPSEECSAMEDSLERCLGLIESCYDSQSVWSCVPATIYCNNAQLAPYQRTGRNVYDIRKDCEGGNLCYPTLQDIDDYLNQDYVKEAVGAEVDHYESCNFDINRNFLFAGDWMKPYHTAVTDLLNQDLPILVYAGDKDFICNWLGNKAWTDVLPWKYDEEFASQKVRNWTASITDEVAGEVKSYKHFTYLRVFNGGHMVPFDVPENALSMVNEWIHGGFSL
# T2: carboxypeptidase Y (CPD-Y) variant N51Q (Asn51 replaced with glutamine) (Saccharomyces cerevisiae, UniProt P00729, N162Q)
# T2 construct: made in house; host or cells: S. cerevisiae W2579 (secreted)
# T2 sequence (P00729 112-532 N162Q): T1 sequence (P00729 112-532 N162S) with S51Q
# T3: yeast carboxypeptidase Y (CPD-Y), wild type (SEQ ID NO:32) (Saccharomyces cerevisiae, UniProt P00729)
# T3 construct: purchased Carlbiotech, Copenhagen, Denmark
# T3 sequence (P00729 112-532): T1 sequence (P00729 112-532 N162S) with S51N
# B1: carboxypeptidase Y (CPD-Y) variant N51S (Asn51 replaced with serine) (Saccharomyces cerevisiae S288C; N162S) (protein)
# chain: T1 sequence (P00729 112-532 N162S)
# notes: made in house; host or cells: S. cerevisiae W2579 (secreted)
# What was measured:
# [1] = target: T4, carboxypeptidase Y (CPD-Y) variant E65A (Glu65 replaced by alanine) (Saccharomyces cerevisiae, UniProt P00729, E176A); experiment: Aminolysis; KN(app) of nucleophile; type: biochemical, yeast; settings: pH 7.5; for Kn,app (H-Val-NH2 as nucleophile): Table VI, substance of the line is the substrate (leaving group varied)
# T4 construct: made in house; host or cells: S. cerevisiae W2579 (secreted)
# Experimental: (§1) Aminolysis reactions were carried out in the following way. The nucleophile was dissolved in 50 mM Hepes, 5 mM EDTA and pH was adjusted to 7.5. Five (5) μl of substrate (8 mM FA-Ala-OBzl in methanol) was added to 190 μl nucleophile solution followed by 5 μl enzyme, resulting in a substrate concentration of 0.2 mM. For reactions carried out at pH 9.5, Hepes was replaced with Ches. During the reaction, 20 μl aliquots were removed from the reaction mixture and added to 50 μl 1% trifluoroacetic acid to quench the reaction. The reactant composition was determined by HPLC using a Waters HPLC equipped with a C-18 Waters Novapac 4μ reverse phase column and various gradients of acetonitrile in 0.1% trifluoroacetic acid. The separation was monitored at 302 nm allowing the direct quantification of the products from the integrated peak areas. The composition of the reaction mixture was determined at least twice during the reaction, the first time when 20-50% (preferably 35%) of the ester substrate had been consumed in the reaction and the second time when 50-90% (preferably 80%) of the substrate had been consumed. The products were collected and identified by amino acid analysis after acid hydrolysis using a Pharmacia Alpha Plus analyzer.
# (§2) Further identification was obtained by co-chromatography of authentic standard compounds. The fraction of aminolysis (fa) was expressed as the ratio between the formed aminolysis product and the sum of all products being formed, i.e., unconsumed substrate was disregarded in the calculations. The KN(app), representing the nucleophile concentration at which fa is half the maximum value (a measure for the dissociation constant of the nucleophile), and famax (the highest possible fa obtained at saturation of the enzyme with nucleophile) were determined by fitting the values of fa obtained at a minimum of seven concentrations of nucleophile to a saturation. The value of fa obtained at the highest possible nucleophile concentration is designated fasat.
# (§3) Aminolysis reactions were carried out in the following way. The nucleophile was dissolved in 50 mM HEPES, 5 mM EDTA and pH was adjusted to 7.5, 5 μl substrate (8 mM FA-Ala-OBzl or FA-Ala-Xaa-OH in methanol) was added to 190 μl nucleophile solution followed by 5 μl enzyme diluted in buffer to the appropriate concentration, resulting in a substrate concentration of 0.2 mM. During the reaction, 20 μl aliquots were removed from the reaction mixture and added to 50 μl 1% trifluoroacetic acid to quench the reaction. The reactant composition was determined by HPLC using a Waters HPLC equipped with a C-18 Waters Novapac 4μ reverse phase column and various gradients of acetonitrile in 0.1% trifluoroacetic acid. The separation was monitored at 302 nm allowing the direct quantification of the products from the integrated peak areas. The products were collected and identified by amino acid analysis after acid hydrolysis (Pharmacia Alpha Plus analyzer) and by co-chromatography of authentic standards. The fraction of aminolysis (fa) was expressed as the ratio between the formed aminolysis product and the sum of all products being formed, i.e. unconsumed substrate was disregarded in the calculations. The KN,app (a measure for the dissociation constant of the nucleophile) and famax (the highest possible fa obtained at saturation with nucleophile were determined by fitting the obtained fa values to the equation fa=famax /(1+KN,app /N).
# [2] = target: T1, carboxypeptidase Y (CPD-Y) variant N51S (Asn51 replaced with serine); experiment: Aminolysis; KN(app) of nucleophile; type: biochemical, yeast; settings: Table VI; substance of the line is the substrate (leaving group varied), pH 7.5
# Experimental: as §1, §2, §3
# [3] = target: T5, carboxypeptidase Y (CPD-Y) variant E145A (Glu145 replaced by alanine) (Saccharomyces cerevisiae, UniProt P00729, E256A); experiment: Aminolysis; KN(app) of nucleophile; type: biochemical, yeast; settings: pH 7.5; for Kn,app (H-Val-NH2 as nucleophile): Table VI, substance of the line is the substrate (leaving group varied); for Kn,app: Table V, amino acid nucleophile, FA-Ala-OBzl as substrate
# T5 construct: made in house; host or cells: S. cerevisiae W2579 (secreted)
# Experimental: as §1, §2, §3
# [4] = target: T2, carboxypeptidase Y (CPD-Y) variant N51Q (Asn51 replaced with glutamine); experiment: Aminolysis; KN(app) of nucleophile; type: biochemical, yeast; settings: for Kn,app (H-Val-NH2 as nucleophile): Table VI, substance of the line is the substrate (leaving group varied); for Kn,app (H-Val-NH2 as nucleophile) / Kn,app: pH 7.5; for KN(app): Table III (unit as in Tables I, II), ester substrate; for KN(app) / Kn,app: amino acid nucleophile; for Kn,app: Table V, FA-Ala-OBzl as substrate
# Experimental: as §1, §2, §3
# [5] = target: T3, yeast carboxypeptidase Y (CPD-Y), wild type (SEQ ID NO:32); experiment: Aminolysis of ester/peptide substrates; KN(app) of nucleophile; type: biochemical; settings: for Kn,app (H-Val-NH2 as nucleophile): Table VI, substance of the line is the substrate (leaving group varied); for Kn,app: Table V, FA-Ala-OBzl as substrate
# Experimental: as §1, §2, §3
# [6] = substrate: CC(C)[C@H](NC(=O)[C@H](Cc1ccccc1)NC(=O)C=Cc1ccco1)C(=O)O; experiment: Hydrolysis of FA-Phe-Val-OH; type: biochemical, yeast; settings: other: hydrolysis of FA-Phe-Val-OH
# [7] = Table II, amino acid nucleophile, substrate FA-Ala-OBzl, pH 7.5
# [8] = Table III (unit as in Tables I, II), amino acid nucleophile, ester substrate
# T4 sequence (P00729 112-532 E176A): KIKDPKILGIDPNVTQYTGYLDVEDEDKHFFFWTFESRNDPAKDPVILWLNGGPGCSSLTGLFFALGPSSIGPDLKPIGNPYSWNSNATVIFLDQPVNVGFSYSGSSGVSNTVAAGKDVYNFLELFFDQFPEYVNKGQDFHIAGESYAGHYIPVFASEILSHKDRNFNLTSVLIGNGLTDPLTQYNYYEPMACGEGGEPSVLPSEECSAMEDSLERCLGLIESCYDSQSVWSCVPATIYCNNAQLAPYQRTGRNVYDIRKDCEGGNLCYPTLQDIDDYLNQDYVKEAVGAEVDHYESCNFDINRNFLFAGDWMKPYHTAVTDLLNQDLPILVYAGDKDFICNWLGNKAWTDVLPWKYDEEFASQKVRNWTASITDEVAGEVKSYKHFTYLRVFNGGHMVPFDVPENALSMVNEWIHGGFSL
# T5 sequence (P00729 112-532 E256A): as the sequence (P00729 112-532 E176A) above, with A65E, E145A counted along it
molecule,measurement,setting,value
"CC(C)[C@H](NC(=O)[C@H](C)NC(=O)C=Cc1ccco1)C(=O)O [FA--Ala--Val--OH, FA-Ala-Val-OH]","Kn,app (H-Val-NH2 as nucleophile)",[1],5.7 ± 0.3 mM
same,"Kn,app (H-Val-NH2 as nucleophile)",[2],1.8 ± 0.1 mM
same,"Kn,app (H-Val-NH2 as nucleophile)",[3],4.2 ± 0.2 mM
same,"Kn,app (H-Val-NH2 as nucleophile)",[4],2.4 ± 0.1 mM
same,"Kn,app (H-Val-NH2 as nucleophile)",[5]; pH 7.5,1.5 ± 0.1 mM
carboxypeptidase Y mutant E65A (enzyme),famax of transpeptidation (nucleophile H-Val-NH2),FA-Ala-Val-OH,0.67
same,famax of transpeptidation (nucleophile H-Val-NH2),FA-Ala-Leu-OH,0.71
same,famax of transpeptidation (nucleophile H-Val-NH2),FA-Ala-Ala-OH,0.96
same,famax of transpeptidation (nucleophile H-Val-NH2),FA-Ala-Phe-OH,0.66
carboxypeptidase Y mutant E145A (enzyme),famax of transpeptidation (nucleophile H-Val-NH2),FA-Ala-Val-OH,0.8
same,famax of transpeptidation (nucleophile H-Val-NH2),FA-Ala-Leu-OH,0.65
same,famax of transpeptidation (nucleophile H-Val-NH2),FA-Ala-Phe-OH,0.49
"C[C@H](NC(=O)[C@H](C)NC(=O)C=Cc1ccco1)C(=O)O [FA--Ala--Ala--OH, FA-Ala-Ala-OH]","Kn,app (H-Val-NH2 as nucleophile)",[1],5.2 ± 0.5 mM
same,"Kn,app (H-Val-NH2 as nucleophile)",[2],1.9 ± 0.1 mM
same,"Kn,app (H-Val-NH2 as nucleophile)",[4],3.1 ± 0.1 mM
same,"Kn,app (H-Val-NH2 as nucleophile)",[5]; pH 7.5,1.8 ± 0.1 mM
carboxypeptidase Y mutant N51Q (enzyme),famax of transpeptidation (nucleophile H-Val-NH2),FA-Ala-Val-OH,0.91
same,famax of transpeptidation (nucleophile H-Val-NH2),FA-Ala-Leu-OH,0.8
same,famax of transpeptidation (nucleophile H-Val-NH2),FA-Ala-Ala-OH,0.98
same,famax of transpeptidation (nucleophile H-Val-NH2),FA-Ala-Phe-OH,0.77
same,kcat/KM of hydrolysis,FA-Phe-Val-OH,300000 M⁻¹ s⁻¹
"CC(C)C[C@H](NC(=O)[C@H](C)NC(=O)C=Cc1ccco1)C(=O)O [FA--Ala--Leu--OH, FA-Ala-Leu-OH]","Kn,app (H-Val-NH2 as nucleophile)",[1],5.2 ± 0.1 mM
same,"Kn,app (H-Val-NH2 as nucleophile)",[3],4.1 ± 0.1 mM
same,"Kn,app (H-Val-NH2 as nucleophile)",[4],2.4 ± 0.1 mM
same,"Kn,app (H-Val-NH2 as nucleophile)",[5]; pH 7.5,1.6 ± 0.1 mM
"C[C@H](NC(=O)C=Cc1ccco1)C(=O)N[C@@H](Cc1ccccc1)C(=O)O [FA--Ala--Phe--OH, FA-Ala-Phe-OH]","Kn,app (H-Val-NH2 as nucleophile)",[1],4.7 ± 0.1 mM
same,"Kn,app (H-Val-NH2 as nucleophile)",[3],4.1 ± 0.1 mM
same,"Kn,app (H-Val-NH2 as nucleophile)",[4],3.1 ± 0.1 mM
same,"Kn,app (H-Val-NH2 as nucleophile)",[5]; pH 7.5,1.1 ± 0.1 mM
carboxypeptidase Y mutant 178Ser/215Ala/216Pro (enzyme),estimated CPD-Y activity relative to wild type transformants (fold of wild type),CBZ-Trp-Leu-OH,1.9
same,estimated CPD-Y activity relative to wild type transformants (fold of wild type),CBZ-His-Leu-OH,0.9
same,estimated CPD-Y activity relative to wild type transformants (fold of wild type),CBZ-Pro-Leu-OH,2.8
same,estimated CPD-Y activity relative to wild type transformants (fold of wild type),CBZ-Gly-Leu-OH,0.6
same,kcat/Km of hydrolysis,CBZ-Lys-Leu-OH,36700 M⁻¹ s⁻¹
same,kcat/Km of hydrolysis,CBZ-Ala-Leu-OH,40000 M⁻¹ s⁻¹
same,kcat/Km of hydrolysis,CBZ-Ser-Leu-OH,50000 M⁻¹ s⁻¹
same,kcat/Km of hydrolysis,CBZ-Phe-Leu-OH,1.83e+06 M⁻¹ s⁻¹
same,kcat/Km of hydrolysis,CBZ-Glu-Leu-OH,8330 M⁻¹ s⁻¹
"CC(C)[C@H](N)C(=O)O [H--Val--OH, H-Val-OH]","Kn,app","[1]; Table V, amino acid nucleophile, FA-Ala-OBzl as substrate",69 ± 2 mM
same,"Kn,app",[3],79 ± 6 mM
same,KN(app),[4],61 ± 3 mM
same,"Kn,app",[4],61 ± 2 mM
same,KN(app),"[5]; Table I, amino acid nucleophile, substrate FA-Ala-OBzl 0.2 mM, pH 7.5",13 ± 1 mM
same,KN(app),[5]; [7],13 ± 1 mM
same,KN(app),[5]; [8],13 ± 1 mM
same,"Kn,app","[5]; amino acid nucleophile, pH 7.5",13 ± 1 mM
same,KN(app),"[5]; nucleophile with substrate FA-Ala-OBzl, pH 7.5",13 mM
carboxypeptidase Y mutant N51S (enzyme),famax of transpeptidation (nucleophile H-Val-NH2),FA-Ala-Val-OH,0.13
same,famax of transpeptidation (nucleophile H-Val-NH2),FA-Ala-Ala-OH,0.88
same,kcat/KM of hydrolysis,FA-Phe-Val-OH,800000 M⁻¹ s⁻¹
"CC(C)C[C@H](N)C(=O)O [H--Leu--OH, H-Leu-OH]","Kn,app",[3],40 ± 2 mM
same,KN(app),[4],42 ± 1 mM
same,"Kn,app",[4],42 ± 1 mM
same,KN(app),[5]; [7],10 ± 0.8 mM
same,KN(app),[5]; [8],10 ± 1 mM
same,"Kn,app","[5]; amino acid nucleophile, pH 7.5",10 ± 1 mM
carboxypeptidase Y mutant 178Ser (enzyme),estimated CPD-Y activity relative to wild type transformants (fold of wild type),CBZ-Trp-Leu-OH,1.2
same,estimated CPD-Y activity relative to wild type transformants (fold of wild type),CBZ-His-Leu-OH,1.1
same,estimated CPD-Y activity relative to wild type transformants (fold of wild type),CBZ-Pro-Leu-OH,1.8
same,estimated CPD-Y activity relative to wild type transformants (fold of wild type),CBZ-Gly-Leu-OH,1.1
same,kcat/Km of hydrolysis,CBZ-Lys-Leu-OH,61700 M⁻¹ s⁻¹
same,kcat/Km of hydrolysis,CBZ-Ala-Leu-OH,80000 M⁻¹ s⁻¹
same,kcat/Km of hydrolysis,CBZ-Ser-Leu-OH,100000 M⁻¹ s⁻¹
same,kcat/Km of hydrolysis,CBZ-Phe-Leu-OH,3.33e+06 M⁻¹ s⁻¹
same,kcat/Km of hydrolysis,CBZ-Glu-Leu-OH,12000 M⁻¹ s⁻¹
B1,Km,[6],170 µM
same,kcat,[6],135 s⁻¹
same,kcat/Km,[6],800000 M⁻¹ s⁻¹
